T1: human neutrophil elastase (human, UniProt P08246 30-247, limits assumed)
T1 sequence (looked up): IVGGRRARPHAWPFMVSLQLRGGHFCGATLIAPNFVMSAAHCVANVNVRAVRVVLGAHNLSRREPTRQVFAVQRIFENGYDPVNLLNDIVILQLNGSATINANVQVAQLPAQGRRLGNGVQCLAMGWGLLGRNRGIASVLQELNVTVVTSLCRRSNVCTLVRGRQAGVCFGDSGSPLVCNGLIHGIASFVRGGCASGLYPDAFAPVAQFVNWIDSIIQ

T2: human neutrophil cathepsin G (human, UniProt P08311 21-244)
T2 sequence (looked up): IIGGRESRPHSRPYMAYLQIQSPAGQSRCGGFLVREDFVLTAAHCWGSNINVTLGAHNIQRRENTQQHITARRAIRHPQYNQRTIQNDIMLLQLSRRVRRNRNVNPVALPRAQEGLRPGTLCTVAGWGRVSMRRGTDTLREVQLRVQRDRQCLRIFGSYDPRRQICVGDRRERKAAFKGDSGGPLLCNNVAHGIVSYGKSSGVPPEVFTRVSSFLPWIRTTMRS


Columns and labels:
Test in all cases: cell-based or functional assay
human thrombin = human thrombin (human, UniProt P00734 328-622)
human factor Xa = human factor Xa (human, UniProt P00742 41-179; P00742 235-488, limits assumed)
[1] = target: T1, human neutrophil elastase
[2] = target: T2, human neutrophil cathepsin G

human factor Xa, sequence (P00742 41-179 limits assumed, chain 1 of 2): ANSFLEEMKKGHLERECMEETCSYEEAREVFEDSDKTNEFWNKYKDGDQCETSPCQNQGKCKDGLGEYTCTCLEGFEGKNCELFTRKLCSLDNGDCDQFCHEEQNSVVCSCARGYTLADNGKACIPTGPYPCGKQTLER
human factor Xa, sequence (P00742 235-488 limits assumed, chain 2 of 2): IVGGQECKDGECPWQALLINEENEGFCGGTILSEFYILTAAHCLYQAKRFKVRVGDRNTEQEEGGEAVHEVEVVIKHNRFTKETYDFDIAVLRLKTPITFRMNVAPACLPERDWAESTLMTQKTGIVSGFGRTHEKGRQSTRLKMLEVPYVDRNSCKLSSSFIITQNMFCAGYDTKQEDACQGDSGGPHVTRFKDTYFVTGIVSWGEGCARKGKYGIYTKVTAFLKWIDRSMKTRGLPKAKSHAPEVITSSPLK

| Binder | IC50 IIa/UFH (HCA #5) (human thrombin) [nM] | IC50 IIa/UFH (HCA #6) (human thrombin) [nM] | rsd IIa, no add (CA #51, stg 1 conc 200) (human thrombin) [%] | IC50 fXa/UFH (HCA #5) (human factor Xa) [nM] | IC50 fXa/UFH (HCA #6) (human factor Xa) [nM] | rsd Xa, no add (CA #51, stg 1 conc 200) (human factor Xa) [%] | rsd IIa, HNE (CA #51, stg 1 conc 200) [1] [%] | rsd Xa, HNE (CA #51, stg 1 conc 200) [1] [%] | rsd IIa, catG (CA #51, stg 1 conc 200) [2] [%] | rsd Xa, catG (CA #51, stg 1 conc 200) [2] [%] | rsd IIa, no add (CA #52, stg 1 conc 200) (human thrombin) [%] | rsd Xa, no add (CA #52, stg 1 conc 200) (human factor Xa) [%] | rsd IIa, HNE (CA #52, stg 1 conc 200) [1] [%] | rsd Xa, HNE (CA #52, stg 1 conc 200) [1] [%] | rsd IIa, catG (CA #52, stg 1 conc 200) [2] [%] | rsd Xa, catG (CA #52, stg 1 conc 200) [2] [%] |
| --- | --- | --- | --- | --- | --- | --- | --- | --- | --- | --- | --- | --- | --- | --- | --- | --- |
| LEAQ.501 (other) SPVDICTAKPRDIPMNPMCIYRSPEKKATEDEGSEQKIPEATNRRVWELSKANSRFATTFYQHLADSKNDNDNIFLSPLSISTAFAMTKLGACNDTLQQLMEVFKFDTISEKTSDQIHFFFAKLNCRLYRKANKASKLVSANRLFGDKSLTFNETYQDISELVYGAKLQPLDFKENAEQSRAAINKWVSNKTEGRITDVIPSEAINELTVLVLVNTIYFKGLWKSKFSPENTRKELFYKADGESCSASMMYQEGKFRYRRVAEGTQVLELPFKGDDITMVLILPKPEKSLAKVEKELTPEVLQEWLDELEEMMLVVHMPRFRIEDGFSLKEQLQDMGLVDLFSPEKSKLPGIVAEGRDDLYVSDAFHKAFLEVNEEGSEAAASTALDAQGRSLNPNRVTFKANRPFLVFIREVPLNTIIFMGRVANPCVK | 150 | 140 | 2 | 15 | 19 | 1 | 3 | 1 | 3 | -2 |  |  |  |  |  |  |
| LEAQ.507 (other) SPVDICTAKPRDIPMNPMCIYRSPEKKATEDEGSEQKIPEATNRRVWELSKANSRFATTFYQHLADSKNDNDNIFLSPLSISTAFAMTKLGACNDTLQQLMEVFKFDTISEKTSDQIHFFFAKLNCRLYRKANKASKLVSANRLFGDKSLTFNETYQDISELVYGAKLQPLDFKENAEQSRAAINKWVSNKTEGRITDVIPSEAINELTVLVLVNTIYFKGLWKSKFSPENTRKELFYKADGESCSASMMYQEGKFRYRRVAEGTQVLELPFKGDDITMVLILPKPEKSLAKVEKELTPEVLQEWLDELEEMMLVVHMPRFRIEDGFSLKEQLQDMGLVDLFSPEKSKLPGIVAEGRDDLYVSDAFHKAFLEVNEEGSEAAASTALRAQGRSLNPNRVTFKANRPFLVFIREVPLNTIIFMGRVANPCVK | 55 |  | 1 | 55 |  | -2 | 2 | -3 | 2 | -2 |  |  |  |  |  |  |
| LEAQ.505 (other) SPVDICTAKPRDIPMNPMCIYRSPEKKATEDEGSEQKIPEATNRRVWELSKANSRFATTFYQHLADSKNDNDNIFLSPLSISTAFAMTKLGACNDTLQQLMEVFKFDTISEKTSDQIHFFFAKLNCRLYRKANKASKLVSANRLFGDKSLTFNETYQDISELVYGAKLQPLDFKENAEQSRAAINKWVSNKTEGRITDVIPSEAINELTVLVLVNTIYFKGLWKSKFSPENTRKELFYKADGESCSASMMYQEGKFRYRRVAEGTQVLELPFKGDDITMVLILPKPEKSLAKVEKELTPEVLQEWLDELEEMMLVVHMPRFRIEDGFSLKEQLQDMGLVDLFSPEKSKLPGIVAEGRDDLYVSDAFHKAFLEVNEEGSEAAASTALQAQGRSLNPNRVTFKANRPFLVFIREVPLNTIIFMGRVANPCVK | 18 |  | 0 | 16 |  | 1 | 0 | 1 | 0 | -2 |  |  |  |  |  |  |

The next lines start with the values.

| IC50 IIa/UFH (HCA #5) (human thrombin) [nM] | IC50 IIa/UFH (HCA #6) (human thrombin) [nM] | rsd IIa, no add (CA #51, stg 1 conc 200) (human thrombin) [%] | IC50 fXa/UFH (HCA #5) (human factor Xa) [nM] | IC50 fXa/UFH (HCA #6) (human factor Xa) [nM] | rsd Xa, no add (CA #51, stg 1 conc 200) (human factor Xa) [%] | rsd IIa, HNE (CA #51, stg 1 conc 200) [1] [%] | rsd Xa, HNE (CA #51, stg 1 conc 200) [1] [%] | rsd IIa, catG (CA #51, stg 1 conc 200) [2] [%] | rsd Xa, catG (CA #51, stg 1 conc 200) [2] [%] | rsd IIa, no add (CA #52, stg 1 conc 200) (human thrombin) [%] | rsd Xa, no add (CA #52, stg 1 conc 200) (human factor Xa) [%] | rsd IIa, HNE (CA #52, stg 1 conc 200) [1] [%] | rsd Xa, HNE (CA #52, stg 1 conc 200) [1] [%] | rsd IIa, catG (CA #52, stg 1 conc 200) [2] [%] | rsd Xa, catG (CA #52, stg 1 conc 200) [2] [%] | Binder |
| --- | --- | --- | --- | --- | --- | --- | --- | --- | --- | --- | --- | --- | --- | --- | --- | --- |
|  | 120 |  |  | 25 |  |  |  |  |  | 4 | 3 | 9 | 3 | 5 | 1 | LEAQ.516 (other) SPVDICTAKPRDIPMNPMCIYRSPEKKATEDEGSEQKIPEATNRRVWELSKANSRFATTFYQHLADSKNDNDNIFLSPLSISTAFAMTKLGACNDTLQQLMEVFKFDTISEKTSDQIHFFFAKLNCRLYRKANKASKLVSANRLFGDKSLTFNETYQDISELVYGAKLQPLDFKENAEQSRAAINKWVSNKTEGRITDVIPSEAINELTVLVLVNTIYFKGLWKSKFSPENTRKELFYKADGESCSASMMYQEGKFRYRRVAEGTQVLELPFKGDDITMVLILPKPEKSLAKVEKELTPEVLQEWLDELEEMMLVVHMPRFRIEDGFSLKEQLQDMGLVDLFSPEKSKLPGIVAEGRDDLYVSDAFHKAFLEVNEEGSEAAASTFLEAQGRSLNPNRVTFKANRPFLVFIREVPLNTIIFMGRVANPCVK |
|  | 110 |  |  | 18 |  |  |  |  |  | 5 | 2 | 3 | 2 | 3 | 1 | LEAQ.515 (other) SPVDICTAKPRDIPMNPMCIYRSPEKKATEDEGSEQKIPEATNRRVWELSKANSRFATTFYQHLADSKNDNDNIFLSPLSISTAFAMTKLGACNDTLQQLMEVFKFDTISEKTSDQIHFFFAKLNCRLYRKANKASKLVSANRLFGDKSLTFNETYQDISELVYGAKLQPLDFKENAEQSRAAINKWVSNKTEGRITDVIPSEAINELTVLVLVNTIYFKGLWKSKFSPENTRKELFYKADGESCSASMMYQEGKFRYRRVAEGTQVLELPFKGDDITMVLILPKPEKSLAKVEKELTPEVLQEWLDELEEMMLVVHMPRFRIEDGFSLKEQLQDMGLVDLFSPEKSKLPGIVAEGRDDLYVSDAFHKAFLEVNEEGSEAAASTLLEAQGRSLNPNRVTFKANRPFLVFIREVPLNTIIFMGRVANPCVK |
| 16 | 18 | 1 | 16 | 20 | -1 | 1 | -3 | 0 | -1 | 1 | 3 | 52 | 10 | 6 | 1 | LEAQ.509 (other) SPVDICTAKPRDIPMNPMCIYRSPEKKATEDEGSEQKIPEATNRRVWELSKANSRFATTFYQHLADSKNDNDNIFLSPLSISTAFAMTKLGACNDTLQQLMEVFKFDTISEKTSDQIHFFFAKLNCRLYRKANKASKLVSANRLFGDKSLTFNETYQDISELVYGAKLQPLDFKENAEQSRAAINKWVSNKTEGRITDVIPSEAINELTVLVLVNTIYFKGLWKSKFSPENTRKELFYKADGESCSASMMYQEGKFRYRRVAEGTQVLELPFKGDDITMVLILPKPEKSLAKVEKELTPEVLQEWLDELEEMMLVVHMPRFRIEDGFSLKEQLQDMGLVDLFSPEKSKLPGIVAEGRDDLYVSDAFHKAFLEVNEEGSEAAASTALVAQGRSLNPNRVTFKANRPFLVFIREVPLNTIIFMGRVANPCVK |
